# Legend:
# [1] = Solubility / precipitation observed during production, dialysis and purification; assay type: physicochemical; conditions: lead ligand sequences from WWp5_4 naïve library
# Method: Therefore, after expression the soluble fractions were further centrifuged at 42,000 g for 20 min at 4 °C. As the samples were diluted (∼5 mg/mL in 25 mL lysis buffer), the soluble fractions were lyophilized and resuspended in 4 mL of water. The samples were dialyzed (Membranes Spectra Pre-Treated 1 kDa, Carl Roth) to Binding buffer without imidazole (20 mM Sodium Phosphate, 500 mM Sodium Chloride pH 7.4) for 24 h at 16 °C. The samples were quantified by […] (typically ∼6 mg/mL), this solution was diluted 1:2 in Binding buffer (20 mM Sodium Phosphate, 500 mM Sodium Chloride, 20 mM imidazole pH 7.4) and purified in a gravitational flow with 6 mL of resin (IMAC Sepharose 6 Fast Flow (Ni^2+), Cytiva) packed in a PD-10 column. The column was prepared using the indications of the manufacturer. The binding of the protein to the column was maximized by an incubation for 1 h at room temperature in agitation at 40rpm. The resin was washed 4 x column volumes (CV) with binding buffer. The elution as achieved by incubation for 15min with elution buffers. We used a gradient with 3 x CV elution buffer 1 (binding buffer with 100 mM imidazole) and 3 x CV elution buffer 2 (binding buffer with 200 mM imidazole).
# The most enriched elutions in WW domains (60%–70% purity) were combined and dialysed against PBS1x (10 mM Na2HPO4, 1.8 mM KH2PO4, 2.7 mM KCl, 137 mM NaCl pH 7.4) with routine changes of buffer up to 48 h at 16 °C. Following the samples were concentrated with a Amicon-Ultra15 3 kDa MWCO (Millipore) with centrifugation conditions 4,900 g, 30 min, 4 °C. The final samples were quantified by BCA assay.
# Size Exclusion Chromatography (SEC). The samples were further purified by SEC to achieve 90% purity in a AKTA system (Cytiva). The column Superdex 75 Increase 10/300 GL (29148721, Cytiva) was washed with water and equilibrated 2CV in PBS1x, as described by the manufacturer. As calibrants we prepare a mixture: 2 mg/mL of Bovine Serum Albumin (66 kDa, BP9702-100, FisherScientific), Ovalbumin (42 kDa, A5503-1G, Sigma), Chicken Lysozyme ([…], 62,971–10G-F, Fluka) and hPin1_WW chemically synthesized (5 kDa, produced in ([Dias et al., 2015])) in PBS 1x, this sample was filtered with 0.2 µm PES (514–0073, VWR) and analysed. The operation conditions: flow 0.5 mL/min, 0.05 CV in PBS1x and injection of 250 µL and run for 2 CV with PBS 1x at 16 °C. The same method was used for the WW domain samples. After purifications samples were quantified for total protein by BCA assay, as described previously and used for characterization.
# [2] = Partition of expressed E6 between soluble and insoluble fraction; assay type: physicochemical; conditions: E. coli Rosetta (DE3), supplementation with L-arginine / L-glutamic acid (tests E and H), Tris-Tricine gel
# Method: The gene corresponding to the chosen E6 sequence was cloned according to the detail information in Supplementary Material. The bacterial clones with the insert DNA were selected for protein expression in E. coli Rosetta (DE3) cells. For this purpose, the DNA was purified with NZYMiniprep kit and was used for transformation onto E. coli Rosetta competent cells following the protocol of the manufacturer. For the protein expression, a pre-inoculum was prepared adding 5 µL of the transformed colonies glycerol stock in 5 mL LB medium containing ampicillin (vector resistance) and […] (strain resistance). After 6 h of incubation, 1 mL of the culture was added to 100 mL of LB medium and was incubated overnight at 37 °C at 225 rpm. On the following day, 10 mL of the culture was inoculated onto 1 L of LB medium and was incubated at 37 °C at 225 rpm. […]
# The WWp5_4 scaffold is composed by 42 amino acid residues with a molecular weight of approximately 5 kDa. […] The protein expression profile was evaluated under normal expression conditions (without supplementation of amino acids, test A) and a strong band at ∼ 5 kDa is visible (Supplementary Figure S3A). […] To assess whether test E or test H has higher content of soluble E6, bacterial cells were lysed and the soluble supernatant analysed. […]
sequence,measurement,setting,value
SMGLPPGWDEYKT RRFKL GKTYYYNH HILS KTSTWTDPRMSS [Clone E6],solubility observed in production and purification,[1],limited solubility
same,soluble fraction of expressed protein,[2],16%

# Source: paper PMC12647017, “Discovery and optimization of a synthetic small protein domain targeting antibodies” (Frontiers in Bioengineering and Biotechnology, 2025)
